Experimental data as given in US20170088602A1 (Bristol-Myers Squibb, published 2017).
Read-outs that look alike come from different tables or passages of the source. Values belong to the binder of their own block, whether it stands above or below them.

Experiments:
[1] = target: T1, human myostatin (mature, recombinant; R&D Systems) (human, UniProt O14793 267-375); test: cell-based or functional assay
T1 sequence: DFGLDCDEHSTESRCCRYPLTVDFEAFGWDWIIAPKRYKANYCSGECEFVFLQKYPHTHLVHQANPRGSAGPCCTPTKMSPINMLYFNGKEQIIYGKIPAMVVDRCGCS

[2] = target: T1, human myostatin (mature, recombinant; …); test: cell-based or functional assay; remark: listed apart in the source
[3] = target: T2, human Activin A (R&D Systems) (human, UniProt P08476 311-426); test: cell-based or functional assay
T2 sequence (looked up): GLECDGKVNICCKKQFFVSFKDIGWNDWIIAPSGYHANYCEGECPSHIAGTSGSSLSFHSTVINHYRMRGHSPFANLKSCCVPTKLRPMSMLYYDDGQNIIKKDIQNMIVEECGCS

[4] = target: T3, human BMP-11 (GDF-11; R&D Systems) (human, UniProt O95390 299-407); test: cell-based or functional assay
T3 sequence (looked up): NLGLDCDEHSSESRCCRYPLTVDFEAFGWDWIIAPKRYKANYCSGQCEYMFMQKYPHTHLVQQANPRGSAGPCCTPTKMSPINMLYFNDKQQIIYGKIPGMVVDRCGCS

[5] = target: T1, human myostatin (mature, recombinant; …); test: SPR format A, 25C
Text: (§1) Anti-human Fc antibody (Biacore/GE) was immobilized on a Biacore CM5 chip via NHS/EDC coupling according to the manufacturer's instructions. […] A concentration range of anti-myostatin Adnectin was applied across all flow cells in HBSP running buffer. Regeneration of the chip surface between cycles was accomplished with two 30 second pulses of 3M MgCl₂. Kinetic traces of reference-subtracted sensorgrams were fit to a 1:1 binding model using Biaevaluation software.

[6] = target: T2, human Activin A (R&D Systems); test: SPR format A, 25C
Text: as §1

[7] = target: T3, human BMP-11 (GDF-11; R&D Systems); test: SPR format A, 25C
Text: as §1

[8] = target: T3, human BMP-11 (GDF-11; R&D Systems); test: SPR Format B; immobilized BMP11, no pre-bound PRD-1474
Procedure: (§2) Adnectin competition using “SPR format B”: The mechanism of action for anti-myostatin Adnectins was further evaluated in “SPR Format B”, where myostatin or BMP11 (10 μg/ml in 10 mM acetate pH 4.5) were directly immobilized on a CM5 sensor chip surface using EDC/NHS coupling chemistry to a density of 985 RU (myostatin) or 530 RU (BMP11). […] The running buffer for immobilization and competition experiments was 10 mM HEPES, 150 mM NaCl, 3 mM EDTA, and 0.05% v/v Surfactant P20, pH 7.4, and surfaces were regenerated between cycles using 4 injections of 50 mM NaOH for 15 s at 30 μl/min.

[9] = target: T3, human BMP-11 (GDF-11; R&D Systems); test: SPR Format B; immobilized BMP11 with pre-bound PRD-1474 as competitor
Procedure: as §2

[10] = target: T3, human BMP-11 (GDF-11; R&D Systems); test: SPR Format A; 100 nM BMP11 with 200 nM ATI-1523 as competitor
Procedure: (§3) Competition SPR: Competitive binding assays to evaluate the ability of anti-myostatin Adnectins to compete with Type I and Type II receptors for binding to myostatin or BMP11, as a surrogate for myostatin, were also conducted using SPR on a Biacore T100 instrument, in two different experimental formats. In “SPR Format A”, sensor chip surfaces were prepared by immobilizing 100 ug/ml protein A (Pierce) in 10 mM acetate pH 4.5 to 4500 RU on a CM5 sensor chip (Biacore/GE Healthcare) using standard ethyl(dimethylaminopropyl) carbodiimide (EDC)/N-hydroxysuccinimide (NHS) chemistry, with ethanolamine blocking. […] The running buffer for immobilization and competition experiments was 10 mM HEPES, 150 mM NaCl, 3 mM EDTA, and 0.05% v/v Surfactant P20, pH 7.4, and surfaces were regenerated between cycles using two injections of 10 mM glycine pH 1.5 for 30 s at 30 μl/min.

[11] = target: T3, human BMP-11 (GDF-11; R&D Systems); test: SPR Format A; 100 nM BMP11 alone
Procedure: as §3

[12] = target: T1, human myostatin (mature, recombinant; …); test: cell-based or functional assay; remark: listed apart in the source
[13] = target: T1, human myostatin (mature, recombinant; …); test: HTRF competition binding assay, alanine mutant against 3116_A06
[14] = target: T1, human myostatin (mature, recombinant; …); test: cell-based or functional assay; remark: listed apart in the source
[15] = target: T1, human myostatin (mature, recombinant; …); test: competitive HTRF, alanine scan
[16] = target: T2, human Activin A (R&D Systems); test: cell-based or functional assay; remark: listed apart in the source
[17] = target: T1, human myostatin (mature, recombinant; …); test: competitive HTRF (1889E01/myostatin/ActRIIb-Fc sandwich)
Text: An HTRF assay was used to measure the binding affinities of anti-myostatin Adnectins to myostatin. […] The Eu-W 1024 labeled Streptavidin is used to bind biotinylated 1889E01. […] In the presence of a competitive Adnectin, the HTRF signal decreases.

[18] = target: T1, human myostatin (mature, recombinant; …); test: cell-based or functional assay; remark: listed apart in the source
[19] = target: T3, human BMP-11 (GDF-11; R&D Systems); test: cell-based or functional assay; remark: listed apart in the source
[20] = target: T2, human Activin A (R&D Systems); test: cell-based or functional assay; remark: listed apart in the source

B1: 2525_D05 (designed binder)
chain: MGVSDVPRDLEVVAATPTSLLISWSLPYAGHLNYYRITYGETGGNSPVQEFTVPGRGVTATISGLKPGVDYTITVYAVTLTKSQLIHYMPISINYRTEIDKPSQHHHHHH
- pSmad2 IC50, 12-point [1]: 0.2 nM
- ARE-luciferase IC50 [2]: 0.11 nM
- ARE-luciferase IC50 [3]: > 1000 nM
- ARE-luciferase IC50 [4]: 3.9 nM
- Kd [5]: 1.28 nM
- binding result [6]: no binding
- Kd [7]: 1.99 nM

B7: ATI-1276 [40K 2-branch PEG] (designed binder)
chain: MGVSDVPRDLEVVAATPTSLLISWYLPYPAHMNYYRITYGETGGNSPVQEFTVPGRGLTATISGLKPGVDYTITVYAVTLTKSQILHHRPISINYRTEGSGCHHHHHH
modifications: 40K 2-branch PEG on the Cys of the EGSGC tail
notes: cysteine mutant of 2524_D09
- ARE-luciferase IC50 [16]: 110 nM
- IC50 [17]: 0.28 nM
- ARE-luciferase IC50 [18]: 0.08 nM
- ARE-luciferase IC50 [19]: 0.15 nM
- Kd [5]: 4.18 nM
- Kd [7]: 8.8 nM

B8: ATI-1278 [40K 2-branch PEG] (designed binder)
chain: MGVSDVPRDLEVVAATPTSLLISWSLPYAGHLNYYRITYGETGGNSPVQEFTVPGRGVTATISGLKPGVDYTITVYAVTLTKSQLIHYMPISINYRTEGSGCHHHHHH
modifications: 40K 2-branch PEG on the Cys of the EGSGC tail
notes: cysteine mutant of 2525_D05
- ARE-luciferase IC50 [16]: > 2000 nM
- IC50 [17]: 0.54 nM
- ARE-luciferase IC50 [18]: 0.27 nM
- ARE-luciferase IC50 [19]: 1.1 nM
- Kd [5]: 6.04 nM
- Kd [7]: 3.3 nM

B9: ATI-1107 [40K 2-branch PEG] (designed binder)
chain: MGVSDVPRDLEVVAATPTSLLISWSLPHAGHVNYYRITYGETGGNSPVQEFTVPGRGVTATISGLKPGVDYTITVYAVTLTKSQMIHYMPISINYRTGSGCHHHHHH
modifications: 40K 2-branch PEG on the Cys of the GSGC tail
notes: cysteine mutant of 1979_B06
- ARE-luciferase IC50 [18]: 19 nM
- ARE-luciferase IC50 [20]: > 2000 nM
- ARE-luciferase IC50 [19]: 888 nM
- Kd [5]: 128 nM
- binding result [6]: no binding
- Kd [7]: ~300 nM

B13: 2062_G02 (designed binder)
chain: MGVSDVPRDLEVVAATPTSLLISWVSPRGRARYYRITYGETGGNSPVQEFTVPGRGSTATISGLKPGVDYTITVYAVTIYRDGMSHHDPISINYRTEIDKPSQHHHHHH
notes: also called ATI-1134
- pSmad2 IC50, 12-point [1]: 59.1 nM
- ARE-luciferase IC50 [2]: 205 nM
- ARE-luciferase IC50 [3]: > 1500 nM
- ARE-luciferase IC50 [4]: 1500 nM
- Kd [5]: 48.8 nM
- binding result [6]: no binding
- Kd [7]: 697 nM

B14: 2523_G06 (designed binder)
chain: MGVSDVPRDLEVVAATPTSLLISWWAPLGLARYYRITYGETGGNSPVQEFTVPGRGSTATISGLKPGVDYTITVYAVTIFRTGMVQYDPISINYRTEIDKPSQHHHHHH
- pSmad2 IC50, 12-point [1]: 0.78 nM
- ARE-luciferase IC50 [2]: 4.2 nM
- ARE-luciferase IC50 [3]: > 2000 nM
- ARE-luciferase IC50 [4]: 46 nM
- Kd [5]: 1.47 nM
- binding result [6]: no binding
- Kd [7]: 10.7 nM

More lines, now with the values ahead:

- SPR binding response (normalized) [8]: 100%
- SPR binding response (normalized) [9]: 65%
- SPR binding response (normalized) [10]: 31%
- SPR binding response (normalized) [11]: 100%
B2: ALK5-Fc (R&D Systems) (Fc fusion, UniProt P36897 34-125, looked up, not shown: a dimerising Fc or GST)
chain: LQCFCHLCTKDNFTCVTDGLCFVSVTETTDKVIHNSMCIAEIDLIPRDRPFVCAPSSKTGSVTTTYCCNQDHCNKIELPTTVKSSPGLGPVE

- Myostatin ARE-luc IC50 [12]: 40 nM
- fold increase in IC50 relative to the parental sequence (WT) [13]: > 10 fold
- ARE-luciferase cell-based assay, IC50 relative to parent sequence [14]: > 10 fold
- IC50 [15]: 5.1 nM
B3: 3116_A06 G30A (designed binder)
chain: MGVSDVPRDLEVVAATPTSLLISWSLPHQAKANYYRITYGETGGNSPVQEFTVPGRGVTATISGLKPGVDYTITVYAVTVTDTGYLKYKPISINYRTEIDKPSQHHHHHH

- Myostatin ARE-luc IC50 [12]: 32 nM
- fold increase in IC50 relative to the parental sequence (WT) [13]: > 10 fold
- ARE-luciferase cell-based assay, IC50 relative to parent sequence [14]: > 10 fold
- IC50 [15]: 4.9 nM
B4: 3116_A06 T81A (designed binder)
chain: MGVSDVPRDLEVVAATPTSLLISWSLPHQGKANYYRITYGETGGNSPVQEFTVPGRGVTATISGLKPGVDYTITVYAVTVADTGYLKYKPISINYRTEIDKPSQHHHHHH

- Myostatin ARE-luc IC50 [12]: > 100 nM
- fold increase in IC50 relative to the parental sequence (WT) [13]: > 10 fold
- IC50 [15]: 4 nM
B5: 3116_A06 V80A (designed binder)
chain: MGVSDVPRDLEVVAATPTSLLISWSLPHQGKANYYRITYGETGGNSPVQEFTVPGRGVTATISGLKPGVDYTITVYAVTATDTGYLKYKPISINYRTEIDKPSQHHHHHH

- Myostatin ARE-luc IC50 [12]: > 100 nM
- fold increase in IC50 relative to the parental sequence (WT) [13]: > 10 fold
- IC50 [15]: 11 nM
B6: 3116_A06 Y88A (designed binder)
chain: MGVSDVPRDLEVVAATPTSLLISWSLPHQGKANYYRITYGETGGNSPVQEFTVPGRGVTATISGLKPGVDYTITVYAVTVTDTGYLKAKPISINYRTEIDKPSQHHHHHH

- SPR binding response (normalized) [8]: 100%
- SPR binding response (normalized) [9]: 30%
- SPR binding response (normalized) [10]: 2%
- SPR binding response (normalized) [11]: 100%
B10: ALK4-Fc (R&D Systems) (Fc fusion, UniProt P36896 24-126, looked up, not shown: a dimerising Fc or GST)
chain: SGPRGVQALLCACTSCLQANYTCETDGACMVSIFNLDGMEHHVRTCIPKVELVPAGKPFYCLSSEDLRNTHCCYTDYCNRIDLRVPSGHLKEPEHPSMWGPVE
notes: also called activin receptor-like kinase 4 Fc

- SPR binding response (normalized) [10]: 189%
- SPR binding response (normalized) [11]: 100%
B11: ActRIIB-Fc (produced in house) (Fc fusion, UniProt Q13705 19-134, looked up, not shown: a dimerising Fc or GST)
chain: SGRGEAETRECIYYNANWELERTNQSGLERCEGEQDKRLHCYASWRNSSGTIELVKKGCWLDDFNCYDRQECVATEENPQVYFCCCEGNFCNERFTHLPEAGGPEVTYEPPPTAPT

- SPR binding response (normalized) [8]: 100%
- SPR binding response (normalized) [9]: 92%
B12: ActRIIB-monomer (produced in house) (receptor, UniProt Q13705 19-134, looked up)
chain: SGRGEAETRECIYYNANWELERTNQSGLERCEGEQDKRLHCYASWRNSSGTIELVKKGCWLDDFNCYDRQECVATEENPQVYFCCCEGNFCNERFTHLPEAGGPEVTYEPPPTAPT
